What was measured:
Assay in all cases: ITC
[1] = target: T1, SUDV VP30 CTD (139–288) (Sudan ebolavirus (SUDV), UniProt Q5XX03 139-288)
T1 chain: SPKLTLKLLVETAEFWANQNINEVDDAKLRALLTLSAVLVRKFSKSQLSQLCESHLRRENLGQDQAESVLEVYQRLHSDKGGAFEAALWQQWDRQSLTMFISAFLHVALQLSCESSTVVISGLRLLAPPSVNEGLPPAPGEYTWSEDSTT

[2] = target: T2, SUDV VP30 CTD (139–288) (Sudan ebolavirus (SUDV), UniProt Q5XX03 139-288); settings: both partners purified
T2 sequence: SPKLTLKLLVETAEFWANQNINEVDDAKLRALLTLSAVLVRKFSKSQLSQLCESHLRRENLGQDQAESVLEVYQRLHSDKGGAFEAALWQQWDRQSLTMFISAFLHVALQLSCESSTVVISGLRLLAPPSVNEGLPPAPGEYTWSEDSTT

[3] = target: T3, MARV VP30 CTD (146–281) (Marburg virus (MARV), UniProt P35258 146-281)
T3 chain: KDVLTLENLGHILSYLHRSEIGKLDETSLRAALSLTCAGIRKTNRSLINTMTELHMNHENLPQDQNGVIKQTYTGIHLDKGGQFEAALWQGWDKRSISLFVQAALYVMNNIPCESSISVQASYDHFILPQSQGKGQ

[4] = target: T4, Ebola virus VP30 C-terminal domain (amino acids 139–288) (Ebola virus (EBOV), UniProt Q05323 139-288)
T4 chain: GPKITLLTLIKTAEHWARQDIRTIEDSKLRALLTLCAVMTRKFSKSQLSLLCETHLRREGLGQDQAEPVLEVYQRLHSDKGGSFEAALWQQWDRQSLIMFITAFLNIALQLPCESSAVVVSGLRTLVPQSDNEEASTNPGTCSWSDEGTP

| Binder | Kd [1] [µM] | binding result [2] | Kd [3] [µM] | Kd [4] [µM] |
| --- | --- | --- | --- | --- |
| EQGVDLPPPPLYAQEKRQ [MARV NP peptide (552–569) fused to T4 lysozyme] | 27.1 |  |  |  |
| RTPTVAPPAPVYRDHSEK [EBOV NP 600–617 fused to T4 lysozyme] | 4.9 | binds | 35 |  |
| NTPTVAPPAPVYKDTGVD [SUDV NP peptide (600–617) fused to T4 lysozyme] | 7.98 |  | 70 | 9.5 |
